From paper PMC4980431, “Ctf4 Is a Hub in the Eukaryotic Replisome that Links Multiple CIP-Box Proteins to the CMG Helicase” (Molecular Cell, 2016)
Positions count from the first letter of the chain named. Numbers in names are those of the source. Where a SMILES comes first, the peptide text is derived from it.

What was measured:
[1] = tested on: budding yeast cells (W303 background); assay: Yeast growth in the presence of hydroxyurea; assay type: cell-based
Procedure: (§1) Yeast growth, two-hybrid analysis, and immunoprecipitation experiments were performed as described in detail previously ([Maculins et al., 2015], [Maric et al., 2014]). A two-hybrid screen against amino acids 461–927 of Ctf4 was performed by the company Hybrigenics.

Ctf4 471-927 (Ctf4CTD) = target: T1, Ctf4 471-927 (Ctf4CTD) (Saccharomyces cerevisiae, UniProt Q01454); assay: Fluorescence anisotropy, peptide binding to Ctf4 471-927; parameters: species or system budding yeast; conditions: legend of Figure S3C; 50 nM fluorescein-labeled Dna2 peptide, pH 7.2, 25°C; mean of three independent experiments
T1 sequence (Q01454 471-927): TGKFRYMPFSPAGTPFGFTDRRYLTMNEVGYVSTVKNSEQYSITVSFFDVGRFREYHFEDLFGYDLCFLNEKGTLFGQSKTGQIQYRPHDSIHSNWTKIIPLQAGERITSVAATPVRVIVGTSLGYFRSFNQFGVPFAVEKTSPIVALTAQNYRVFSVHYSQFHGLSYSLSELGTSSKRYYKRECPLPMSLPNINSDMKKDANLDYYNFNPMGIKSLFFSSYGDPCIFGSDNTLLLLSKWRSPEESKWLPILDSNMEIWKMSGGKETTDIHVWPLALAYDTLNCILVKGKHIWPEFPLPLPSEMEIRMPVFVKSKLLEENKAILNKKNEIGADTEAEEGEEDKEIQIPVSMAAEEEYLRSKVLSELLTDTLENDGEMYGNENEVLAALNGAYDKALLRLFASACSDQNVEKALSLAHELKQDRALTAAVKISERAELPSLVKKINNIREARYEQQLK
Procedure: The lowest concentration of peptide at which the binding studies could be performed was determined via peptide calibration curves. Fluorescence anisotropy measurements were recorded in a PHERAstar Plus multi-detection plate reader (BMG Labtech) equipped with fluorescence polarization optic module (λex = 485 nm; λem = 520 nm) at 25°C. Each data point is the mean of 200 flashes/well. The voltage gain was set by adjusting the target mP values of fluorescein-labeled peptides relative to that of fluorescein (35 mP). Serial dilutions of Ctf4CTD were made in 20 mM HEPES (pH 7.2), 140 mM KCl, and 5% (w/v) glycerol in the presence of 40 nM (Sld5 and Tof2) or 50 nM (Dna2) fluorescein-labeled peptide. For Dna2 peptide, each data point is the mean of three independent experiments and curve fitting to the experimental data was performed in pro Fit 6.2 (QuantumSoft) using a Levenberg-Marquardt fitting algorithm in combination with a Gaussian error distribution analysis.

Ctf4 = assay: Co-purification with Ctf4 from yeast cell extracts; assay type: cell-based, budding yeast; conditions: extracts of yeast cells; S phase and G1-phase; immunoblotting
Procedure: Figure 3 Interaction of the Type I CIP-Box Protein Dna2 with Ctf4 Is Important for rDNA Maintenance (A) GAL-DNA2-9MYC CTF4-TAP (YFV22) and GAL-DNA2-9MYC control cells (YFV21) were grown at 30°C in rich medium containing 2% galactose and then treated as in Figure 2D. The Ctf4-TAP was isolated from cell extracts on magnetic beads coupled to IgG. (B) The smallest fragment of Dna2 that interacted with Ctf4 461–927 in the two-hybrid screen (120–456 shown in red) contains a Ctf4-interacting peptide or CIP-box, closely related to those of Sld5 and Pol1 (upper). […] (C) Mutations in the CIP-box of Dna2 abolished the interaction of full-length Dna2 (1–1,522) or Dna2 120–456 to interact with Ctf4 461–927. (D) When soaked into crystals of Ctf4 471–927, the Dna2 CIP-box binds to the helical region of Ctf4, as previously observed for the CIP-boxes of Pol1 and Sld5 ([Simon et al., 2014]). […]
Figure 4 Tof2 and Dpb2 Define a New Class of Type II CIP-Box Proteins that Bind to a Novel Binding Pocket on the Surface of Ctf4 (A) The smallest fragments of Dpb2 and Tof2 that interacted with Ctf4 461–927 in the two-hybrid screen (shown in red) were each found to contain a putative CIP-box with limited homology to the type I CIP-boxes of Sld5, Dna2, and Pol1. […] The indicated proteins were monitored by immunoblotting. […]

[2] = target: the molecule itself; assay: SEC-MALS; 100 μl at 2 mg/ml on Superdex S200 HR 10/300 in 20 mM HEPES pH 7.2, 160 mM NaCl, 0.5 ml/min
CMG helicase = assay: Co-purification with CMG helicase from yeast cell extracts; assay type: cell-based, budding yeast; conditions: extracts of S phase yeast cells; immunoprecipitation, immunoblotting
Procedure: (D) Cultures of ctf4-4E MCM4-9MYC (YFV13) and MCM4-9MYC control cells (YSS75) were synchronized in G1-phase at 30°C and then released into S phase for 20 min. The Mcm4-9MYC was isolated from cell extracts by immunoprecipitation and the associated proteins monitored by immunoblotting. (E) ctf4-4E is synthetic lethal with mrc1Δ. The cells were processed as in Figure 1A, and the photos in the lower images were taken after 20 hr growth at 30°C (the scale bars represent 50 μm). See also Figure S2. TEXT PRINTED IN THE PICTURE: (C) Ctf4-4E (471-927): 162 kDa
as §1

NC(=O)NO [hydroxyurea]
sensitivity to hydroxyurea, ctf4-3E cells (in words) ([1]; ctf4-3E cells compared with ctf4Δ, Figure 5F): do not share the sensitivity of ctf4Δ cells
sensitivity to hydroxyurea, pol1-4A cells (in words) ([1]; pol1-4A cells, in contrast to ctf4Δ, Figure 1B): does not cause sensitivity

CC[C@H](C)[C@H](NC(=O)[C@H](CC(=O)O)NC(=O)[C@H](CC(=O)O)NC(=O)[C@H](CC(C)C)NC(=O)[C@@H](NC(=O)[C@H](CC(=O)O)NC(=O)[C@H](CC(=O)O)NC(=O)[C@@H](NC(=O)[C@H](CC(N)=O)NC(=O)[C@H](CCCNC(=N)N)NC(=O)[C@H](CC(C)C)NC(=O)[C@@H](N)CO)[C@@H](C)CC)[C@@H](C)CC)C(=O)N[C@@H](CCC(=O)O)C(=O)NCC(=O)N[C@@H](CC(=O)O)C(=O)N[C@@H](CC(C)C)C(=O)N[C@H](C(=O)O)[C@@H](C)O [Dna2 peptide (207-223)] (H-SLRNIDDILDDIEGDLT-OH)
Kd (Ctf4 471-927 (Ctf4CTD)): 229 µM

nuclease/helicase Dna2: multi-functional nuclease/helicase Dna2, expressed in yeast cells
co-purification with Ctf4 (in words) (Ctf4): co-purified with Ctf4

B1: Ctf4-4E 471–927 (domain or fragment, budding yeast, UniProt Q01454 471-927, looked up)
chain: T1 sequence (Q01454 471-927) with L397E, A401E, A427E, I431E
notes: also called Ctf4CTD 4E mutant protein; source: purified protein
stoichiometry N [2]: 3

B2: Ctf4 471–927 (domain or fragment, budding yeast, UniProt Q01454 471-927, looked up)
chain: T1 sequence (Q01454 471-927)
notes: also called Ctf4CTD; source: purified Ctf4CTD protein
stoichiometry N [2]: 3

B3: Ctf4-I901E: Ctf4 with glutamate mutation of I901 (protein)
chain: MVSVIDKLVFDFGGKTLVSLAPDNNTLCVANKNGLTKILKTNNPEEEPETLDSSKLVSSIKCYSNSHFLMTTMQGDALRYNIDSSQEELLARFALPLRDCCVIHSGKMAVFGGDDLELILLELDDETHKKHAIKIDEQVSQISYNSQMNILAVSMINGKVQIFSLTSTIPNKVHELNDYIVANSYDDTHRDKILSNMMDDIDKDNDNDLSETADPDENNVADPEFCAANRICTRVAWHPKGLHFALPCADDTVKIFSIKGYSLQKTLSTNLSSTKAHFIDLQFDPLRGTYIAAVDLNNKLTVWNWETSEIHYTREFKRKITNIAWKIQADSKTLDLVLGTWSGSIAIVQNLAESVVSNIPDQSVAESSTKHGLFVDSESDLENLEGNDDINKSDKLFSDITQEANAEDVFTQTHDGPSGLSEKRKYNFEDEEDFIDDDDGAGYISGKKPHNEHSYSRVHKTHSFPISLANTGKFRYMPFSPAGTPFGFTDRRYLTMNEVGYVSTVKNSEQYSITVSFFDVGRFREYHFEDLFGYDLCFLNEKGTLFGQSKTGQIQYRPHDSIHSNWTKIIPLQAGERITSVAATPVRVIVGTSLGYFRSFNQFGVPFAVEKTSPIVALTAQNYRVFSVHYSQFHGLSYSLSELGTSSKRYYKRECPLPMSLPNINSDMKKDANLDYYNFNPMGIKSLFFSSYGDPCIFGSDNTLLLLSKWRSPEESKWLPILDSNMEIWKMSGGKETTDIHVWPLALAYDTLNCILVKGKHIWPEFPLPLPSEMEIRMPVFVKSKLLEENKAILNKKNEIGADTEAEEGEEDKEIQIPVSMAAEEEYLRSKVLSELLTDTLENDGEMYGNENEVLAALNGAYDKALLRLFASACSDQNVEKALSLAHELKQDRALTAAVKESERAELPSLVKKINNIREARYEQQLK
association with CMG helicase (in words) (CMG helicase): unable to interact with the CMG helicase

B4: tagged form of Tof2: tagged form of Tof2 expressed in budding yeast cells (protein)
chain: MIKMWRLQIVLVPPSAQDIITFLEARLNTPQSVSPMVQYNEDIITHNNSINNCSDPSPTSPSSQNSIQSNRSSDFINYLPNCKKFLHFTDGDNTLLQLSNEILTKFDRLYPNFKESIEIVSLQDRHGCDLDSEFIIKDVFENDGVVLVILKDELDWSRNQHISLLQLARQRRRQDNKPSTKSIVTEKRKKISKEDLSSISNKDTMHLIAKSSLKNNFINKSRVSTPLMNEILPLASKYDALNKEKCPMPLTSTVVASNVHKDVKDHARAKEGVVTQGSDNNKENIPSSTQQQKNDGAKRAESKDLDLLRNSSEDADYEPADENSPQISFDSIDTDFQLSTTSHTNSDMHIQYSNPSSGAHSPRKSSLEIKVQNKKGDDLPLNDKDIGENCRRIEAFSDEEDFNETDNDRADSFINNSKKASMGFRDINSDLDSVSFNSDIENAVQSTQSTKNVVSPPFFPEKELNNRLHQSQGKEALFRLVEKEFPDKSLGAASSTSHAKDVKIQETIRKLNRFKPTGETKVQKRNSITEPYYGKFGIMKKDKPKSITSKGVSLETKHFDDPNTIISGEKFAKFGKIKVKRKTDDVGSKVIEFKRKRNMGNRSLKDIFANAGKPPNAASTIKVVKLMRDPVDNSKDKVEATSNSTAQEQEQVSPKLPVMNSTPGKRKNGQAIPSSLERTPQLKKVKVTRSHSSPSSSSSMSLESSLDSSSSDDSDDDSDSRNVQVKKINFKTSHGPAGNSNGKPMLDVDDNEINTKKYQTPKYVESDEDDQ
modifications: left off: ProteinA, end not stated, kept
notes: tagged form of Tof2 expressed in budding yeast cells
co-purification with Ctf4 (in words) (Ctf4): co-purified with Ctf4 in both G1-phase and S phase
association with CMG helicase (in words) (CMG helicase): co-purified with the CMG helicase during S phase
